According to patent US20260248925A1:

Molecular target: PTH receptor (PTHR1) (human) (UniProt Q03431)
Test: cell-based or functional assay

UniProt Q03431, sequence (Q03431 27-593): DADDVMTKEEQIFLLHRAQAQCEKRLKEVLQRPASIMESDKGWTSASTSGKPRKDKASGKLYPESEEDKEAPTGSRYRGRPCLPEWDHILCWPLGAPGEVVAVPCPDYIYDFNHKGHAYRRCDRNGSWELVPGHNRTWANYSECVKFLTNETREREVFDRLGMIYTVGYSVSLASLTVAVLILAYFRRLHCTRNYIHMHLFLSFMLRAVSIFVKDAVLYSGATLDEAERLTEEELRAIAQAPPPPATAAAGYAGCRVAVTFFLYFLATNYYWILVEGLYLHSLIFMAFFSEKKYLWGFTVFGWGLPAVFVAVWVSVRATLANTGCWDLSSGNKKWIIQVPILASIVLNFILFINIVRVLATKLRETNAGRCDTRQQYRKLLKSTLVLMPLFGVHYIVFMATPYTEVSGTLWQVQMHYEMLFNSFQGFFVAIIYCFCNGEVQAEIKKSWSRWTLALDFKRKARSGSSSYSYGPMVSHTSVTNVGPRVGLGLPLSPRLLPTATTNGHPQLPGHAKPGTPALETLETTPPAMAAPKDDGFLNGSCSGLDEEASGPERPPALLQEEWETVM

EC50 (cAMP, PTH1 cellular assay): 1.4 nM
Maximal response: 105%
Substance: PTH (ligand)
